Target: wildtype human transient receptor potential ankyrin 1 channel subunit (hTRPA1_WT) (human) (UniProt O75762)
Assay: co-IP

| Substance | normalized fold of enrichment (against HA-tagged WT) |
| --- | --- |
| hTRPA1_27A splice variant, HA-tagged (natural protein) | 0.71 fold |
| hTRPA1_27B splice variant, HA-tagged (natural protein) | 0.62 fold |
